Results on twelve molecules are retold here after patent publication US20200024348A1 (Alector, published 2020).

Test [1] deals with T1, human Sortilin (SORT1), full-length untagged, expressed on cells (human, UniProt Q99523 78-831).
T1 sequence: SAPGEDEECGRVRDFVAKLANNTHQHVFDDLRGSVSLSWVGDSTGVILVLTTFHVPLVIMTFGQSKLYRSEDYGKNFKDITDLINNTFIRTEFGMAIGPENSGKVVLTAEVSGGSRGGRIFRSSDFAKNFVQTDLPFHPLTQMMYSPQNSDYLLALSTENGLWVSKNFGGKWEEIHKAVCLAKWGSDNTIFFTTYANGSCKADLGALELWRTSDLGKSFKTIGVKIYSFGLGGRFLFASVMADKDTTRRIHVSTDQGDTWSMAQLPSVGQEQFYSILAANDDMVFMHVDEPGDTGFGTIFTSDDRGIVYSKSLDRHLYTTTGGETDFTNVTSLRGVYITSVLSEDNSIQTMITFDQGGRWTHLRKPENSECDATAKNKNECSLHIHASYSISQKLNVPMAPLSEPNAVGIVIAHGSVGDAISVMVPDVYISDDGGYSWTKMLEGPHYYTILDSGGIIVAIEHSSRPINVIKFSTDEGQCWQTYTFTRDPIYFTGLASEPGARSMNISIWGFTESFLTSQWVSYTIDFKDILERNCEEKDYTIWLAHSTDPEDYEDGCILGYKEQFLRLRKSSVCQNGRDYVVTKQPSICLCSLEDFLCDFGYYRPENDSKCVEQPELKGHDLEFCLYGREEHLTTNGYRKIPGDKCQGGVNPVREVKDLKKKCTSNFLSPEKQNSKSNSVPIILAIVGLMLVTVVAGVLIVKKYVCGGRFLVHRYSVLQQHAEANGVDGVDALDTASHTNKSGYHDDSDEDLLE
As to the kind of experiment: cell-based or functional assay.

For test [2], the target named is T1, human Sortilin (SORT1), full-length …. In words: FACS on HEK293T cells expressing human SORT1, huIgG1. The method, then:
For the binding assay, stable HEK293T cells expressing human SORT1 were harvested by trypsinization, washed in PBS, counted and plated on 96-well u-bottom plates at 1×10⁵ cells/well. The plates were spun at 1,400 rpm for 3 minutes and primary anti-SORT1 or control antibodies were added in FACS buffer (PBS+2 FBS) and incubated on ice for one hour. Cells were subsequently centrifuged as before and washed thrice with FACS buffer. Cells were then incubated with anti-human APC conjugated secondary antibody (BD Biosciences) in FACS buffer for 30 minutes on ice. Cells were again washed three times with FACS buffer and analyzed on a BD FACS Canto or an Intellicyt Flow Cytometer. Binding was measured as median fluorescent intensity (MFI) in the […] channel of the GFP positive cell population.
All antibodies were tested on the huIgG1 backbone.

Test [3] shares this target. As to the kind of experiment: cell-based or functional assay. The source holds these as a separate data set.
Test [4] shares this target. As to the kind of experiment: cell-based or functional assay. This is another data set of the same source.
For test [5] the target is unchanged. In words: cell-based or functional assay. This is another data set of the same source.
The target of test [6] is T2, histidine-tagged human SORT1 (R&D Systems) (human, UniProt Q99523 78-755).
T2 construct: Bought recombinant protein; also called His-tagged human SORT1; not shown: histidine tag
T2 sequence: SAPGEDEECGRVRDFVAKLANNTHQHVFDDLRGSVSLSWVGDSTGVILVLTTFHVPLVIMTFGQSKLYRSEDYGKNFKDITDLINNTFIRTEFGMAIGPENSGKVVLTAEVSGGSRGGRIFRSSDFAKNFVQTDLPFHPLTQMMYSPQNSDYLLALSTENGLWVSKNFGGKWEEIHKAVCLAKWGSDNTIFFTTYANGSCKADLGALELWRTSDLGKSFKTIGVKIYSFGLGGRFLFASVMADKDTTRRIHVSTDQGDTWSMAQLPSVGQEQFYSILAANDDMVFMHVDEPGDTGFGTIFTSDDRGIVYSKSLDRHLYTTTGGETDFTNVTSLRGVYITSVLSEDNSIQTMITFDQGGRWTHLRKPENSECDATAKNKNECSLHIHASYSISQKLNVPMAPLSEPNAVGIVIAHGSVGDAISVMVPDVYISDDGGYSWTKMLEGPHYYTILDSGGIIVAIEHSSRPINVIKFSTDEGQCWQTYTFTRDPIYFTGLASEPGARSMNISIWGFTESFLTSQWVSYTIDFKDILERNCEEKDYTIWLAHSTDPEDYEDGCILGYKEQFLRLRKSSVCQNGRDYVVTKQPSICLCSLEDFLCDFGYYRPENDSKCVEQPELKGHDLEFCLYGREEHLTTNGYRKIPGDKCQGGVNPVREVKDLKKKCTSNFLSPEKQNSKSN
As to the kind of experiment: BLI (Octet RED96), antibody captured on anti-human IgG Fc sensor, 20 nM His-tagged human SORT1, 1:1 fit. The method, then: The G1m3 or G1m(f) allotype with L234A/L235A/P331S (“LALAPS” motif) mutations was used as a background (Jefferis R and Lefranc M-P, Mabs, 2009 July-August; 1(4): 332-338). […] Bio-layer interferometry (BLI) data was collected at a rate of 5 Hz at 25° C. on a Pall ForteBio Octet RED96 instrument. Data analysis was performed using ForteBio Data Analysis Software, version 9.0. Standard kinetic buffer (PBS, 0.1 BSA, 0.02 Tween-20, pH 7.2) was used for the assay and for preparing reagents. For all assays, sensor tips were equilibrated in buffer prior to analysis.
Twenty nM histidine-tagged human SORT1 (R&D Systems, Minneapolis, Minn.) was then bound to the captured anti-SORT1 surface (200 s association time, 1200 s dissociation time). […] Full, local fitting using a 1:1 interaction model was applied to extract association and dissociation rate constants (kₐ and kd, respectively) for each N33 mutant. Affinity constants (KD) were calculated from the ratio […]. Different amino acid substitutions were made at N33 and tested for binding to SORT1 in an off-rate screen (under non-stress conditions) as shown in Table 9.

Test [7] deals with T2, histidine-tagged human SORT1 (R&D …). In words: BLI, complete kinetic analysis with multiple concentrations of SORT1. On the technique in general: In BLI a coated tip is dipped into the sample, and binding shifts an interference pattern.

B1: S-60-8 (antibody, IgG1, V domains shown)
VH: QVQLQESGPGLVKPSETLSLTCAVSGYSISSGYYWGWIRQPPGKGLEWIGTIYHSGSTYYNPSLKSRVTISVDTSKNQFSLKLSSVTAADTAVYYCARQGSIKQGYYGMDVWGQGTTVTVSS
VL: not shown
notes: Tested on the huIgG1 (WT) backbone
As a reminder, the Kd is the constant that tells how readily two partners part at equilibrium. For B1, in test [1], the “DR EC50 (M): down-regulation of cell surface SORT1, U251 cells, FACS” value came out at 5.76e-10 M and the “DR at 0.6 nM antibody (IgG): percent SORT1 downregulation, U251 cells” value is 32%. Besides, in test [2], binding was characterised by a dissociation constant (Kd) of 0.468 nM.

B2: S-60-12 (antibody, IgG1, V domains shown)
VH: QVQLQESGPGLVKPSETLSLTCAVSGYSISSGYYWGWIRQPPGKGLEWIGTIYHSGSTYYNPSLKSQVTISVDTSKNQFSLELSSVTAADTAVYYCARQGSIQQGYYGMDVWGQGTTVTVSS
VL: DIVMTQSPLSLPVTPGEPASISCRSSQSLLRSNGYNYLDWYLQKPGQPPQLLIYLGSNRVSGVPDRFSGSGSGTDFTLKISRVEAEDVGVYYCMQQQETPLTFGGGTKVEIK
notes: as for B1
With B2, the “DR at 0.63 nM antibody (IgG): percent SORT1 downregulation, U251 cells” value in test [3] worked out at 87.4%. The Kd in test [2] was 0.89 nM.

B3: S-60-16 (antibody, IgG1, V domains shown)
VH: QVQLQESGPGLVKPSETLSLTCAVSGYSISSGYYWGWIRQPPGKGLEWIGTIYHSGSTYYNPSLKSRVTISVDTSKNQFSLKLSSVTAADTAVYYCARQGSIKQGYYGMDVWGQGTTVTVSS
VL: not shown
notes: as for B1
Take B3: the “DR at 1.25 nM antibody (IgG): percent SORT1 downregulation, U251 cells” value in test [4] is 70.1%. Further, the Kd in test [2] was 0.78 nM.

B4: S-60-13 (antibody, IgG1, V domains shown)
VH: QVQLQESGPGLVKPSETLSLTCAVSGYSISSGYYWGWIRQPPGKGLEWIGTIYHSGSTYYNPSLESRVTISVDTSKNQFSLKLSSVTAADTAVYYCARQGSIQQGYYGMDVWGQGTTVTVSS
VL: not shown
notes: as for B1
Turning to B4, the “DR at 0.63 nM antibody (IgG): percent SORT1 downregulation, U251 cells” value in test [3] was determined as 82.3%. The same molecule yielded a dissociation constant (Kd) in test [2] of 0.75 nM.

B5: S-60-15 (antibody, IgG1, V domains shown)
VH: QVQLQESGPGLVKPSETLSLTCAVSGYSISSGYYWGWIRQPPGKGLEWIGTIYHSGSTYYNPSLKSRVTISVDTSKNQFSLKLSSVTAADTAVYYCARQGSIKQGYYGMDVWGQGTTVTVSS
VL: not shown
For the molecule B5, the “DR at 1.25 nM antibody (IgG): percent SORT1 downregulation, U251 cells” value in test [4] was 60.9%. In test [2], this molecule came in with a Kd of 0.56 nM.

B6: S-60-14 (antibody, IgG1, V domains shown)
VH: QVQLQESGPGLVKPSETLSLTCAVSGYSISSGYYWGWIRQPPGKGLEWIGTIYHSGSTYYNPSLESRVTISVDTSKNQFSLKLSSVTAADTAVYYCARQGSIQQGYYGMDVWGQGTTVTVSS
VL: not shown
notes: as for B1
Consider B6, for which the “DR at 0.63 nM antibody (IgG): percent SORT1 downregulation, U251 cells” value in test [3] came to 80.5%. Besides, binding in test [2] was put at a Kd of 1.05 nM.

B7: S-60-15.5 [N33D] (antibody, V domains shown)
VH: QVQLQESGPGLVKPSETLSLTCAVSGYSISSGYYWGWIRQPPGKGLEWIGTIYHSGSTYYNPSLKSRVTISVDTSKNQFSLKLSSVTAADTAVYYCARQGSIKQGYYGMDVWGQGTTVTVSS
VL: DIVMTQSPLSLPVTPGEPASISCRSSQSLLRSDGYNYLDWYLQKPGQSPQLLIYLGSNRASGVPDRFSGSGSGTDFTLKISRAEAEDVGVYYCMQQQEAPLTFGGGTKVEIKR
notes: also called completely deamidated version of S-60-15
On to B7, for which the “% DR at 150 nM antibody (IgG), U251 cells” value in test [5] is 3.4%. In addition, the Kd in test [6] worked out at 1 nM.

B8: S-60-19 (antibody, IgG1, V domains shown)
VH: QVQLQESGPGLVKPSETLSLTCAVSGYSISSGYYWGWIRQPPGKGLEWIGTIYHSGSTYYNPSLKSQVTISVDTSKNQFSLELSSVTAADTAVYYCARQGSIQQGYYGMDVWGQGTTVTVSS
VL: not shown
notes: as for B1
Turning to B8, the “DR at 1.25 nM antibody (IgG): percent SORT1 downregulation, U251 cells” value in test [4] amounted to 55.5%. The same molecule had a Kd in test [2] of 0.8 nM.

B9: S-60-11 (antibody, IgG1, V domains shown)
VH: QVQLQESGPGLVKPSETLSLTCAVSGYSISSGYYWGWIRQPPGKGLEWIGTIYHSGSTYYNPSLKSQVTISVDTSKNQFSLELSSVTAADTAVYYCARQGSIQQGYYGMDVWGQGTTVTVSS
VL: not shown
notes: as for B1
Consider B9, for which the “DR at 0.63 nM antibody (IgG): percent SORT1 downregulation, U251 cells” value in test [3] was found to be 88.8%. Binding in test [2] was put at a Kd of 0.65 nM.

B10: S-60-10 (antibody, IgG1, V domains shown)
VH: QVQLQESGPGLVKPSETLSLTCAVSGYSISSGYYWGWIRQPPGKGLEWIGTIYHSGSTYYNPSLKSQVTISVDTSKNQFSLELSSVTAADTAVYYCARQGSIQQGYYGMDVWGQGTTVTVSS
VL: not shown
notes: as for B1
As for B10, the “DR at 0.63 nM antibody (IgG): percent SORT1 downregulation, U251 cells” value in test [3] was determined as 85.4%. Binding in test [2] was put at a Kd of 0.65 nM.

B11: S-60-15.1 [N33T] LALAPS (antibody, human IgG1, kappa, L234A L235A, V domains shown)
VH: QVQLQESGPGLVKPSETLSLTCAVSGYSISSGYYWGWIRQPPGKGLEWIGTIYHSGSTYYNPSLKSRVTISVDTSKNQFSLKLSSVTAADTAVYYCARQGSIKQGYYGMDVWGQGTTVTVSS
VL: DIVMTQSPLSLPVTPGEPASISCRSSQSLLRSTGYNYLDWYLQKPGQSPQLLIYLGSNRASGVPDRFSGSGSGTDFTLKISRAEAEDVGVYYCMQQQEAPLTFGGGTKVEIKR
notes: huIgG1 LALAPS
As to B11, in test [5], the “% DR at 150 nM antibody (IgG), U251 cells” value turned out to be 70.3% and the “EC50 (pM): downregulation (DR) of cell surface SORT1, U251 cells, FACS” value was 104 pM. The molecule further returned a Kd in test [7] of 0.26 nM.

B12: S-60-18 (antibody, IgG1, V domains shown)
VH: QVQLQESGPGLVKPSETLSLTCAVSGYSISSGYYWGWIRQPPGKGLEWIGTIYHSGSTYYNPSLKSRVTISVDTSKNQFSLKLSSVTAADTAVYYCARQGSIKQGYYGMDVWGQGTTVTVSS
VL: DIVMTQSPLSLPVTPGGPASISCRSSQSLLRSNGYNYLDWYLQKPGQSPQLLIYLGSNRASGVPDRLSGSGSGTDFTLKISRVEAEDVGVYYCMQQQETPLTFGGGTKVEIK
notes: as for B1
As for B12, in test [4], the “DR at 1.25 nM antibody (IgG): percent SORT1 downregulation, U251 cells” value came to 51.3%. In addition, the affinity in test [2], expressed as Kd, was 1.63 nM.
